Assay results as given in patent US12460006B2, “Antibodies against integrin alpha 11 beta 1” (Momenta Pharmaceuticals, Inc., priority 2019, dated 2025).

What was measured:
α1β1, α2β1 and/or α10β1 = experiment: Counter-screen for cross-reactivity to other collagen receptors; assay type: binding, human; conditions: cross-reactivity to α1β1, α2β1, α10β1
Experimental: Wistar rats were immunized with recombinant human α11β1 protein. An enzyme-linked immunosorbent assay (ELISA) was used to test an immune response against target human and mouse proteins. Subsequently, cell fusion (by electro fusion) was performed with animals that produced a good immune response. All fused cells were plated in a 96-well plate and supernatants were screened by ELISA against soluble human and mouse α11β1. Positive clones were counter-screened against human α1β1, α2β1 and α10β1. […] Purified antibodies were then generated from the selected clones and heavy chain and light chain variable domain sequences were obtained from each purified antibody.
10 mice from 5 different strains were immunized with an appropriate mixture of human α11β1, mouse α11β1 and tolerance breaking protein. Plasma titers were evaluated by ELISA against a mixture of human and mouse α11β1. Popliteal, inguinal, and iliac lymph nodes were collected. ELISA-positive anti-human/mouse α11β1 hybridomas were expanded and subjected to a secondary screen against human and mouse α11β1, control HIS protein, and a counter-screen was performed against human […], α2β1 and α10β1. Supernatant IgG concentration was sufficient for functional screening. Selected hybridomas satisfying all the criteria were cloned and clonal hybridomas were confirmed by ELISA against human and mouse α11β1 and subsequently scaled-up and IgGs were purified. Heavy and light chain variable regions of selected hybridomas were then sequenced.
α11β1 belongs to a family of collagen receptors and has a relatively high homology to them. Therefore, the novel antibodies of this invention were counter-screened against α1β1, α2β1 and/or α10β1. Table 2 includes results of cross-reactivity to the other receptors.

[1] = system: human pulmonary fibroblasts (HPFs); experiment: FACS antibody binding to human pulmonary fibroblasts; conditions: for HPF FACS: binding Yes/No
Experimental: Human Pulmonary Fibroblasts (ScienCell) were cultured in complete Fibroblast Growth Medium (ScienCell) until 80% confluent in T-150 flasks. Cells were washed and harvested using Accutase. Cells were seeded into T-150 flasks at 7,500 cells/cm^2 in complete FGF and cultured for 72 hours. Cells were then washed and starved in serum reduced medium for 24 hours. After starvation, cells were treated with TGFβ-1 (R&D Systems) for 72 hours. Cells were harvested using Accutase and seeded in 96-well conical bottom plates. Cells were blocked with Heat Inactived Fetal Bovine Serum (Gibco) for 30 minutes at 4° C. Cells were then incubated with anti-α11 antibodies at the doses described in each figure for 30 minutes at 4° C. A human anti-α11 antibody (Creative BioLabs) was included as a positive control as well as the appropriate IgG isotype negative controls. Cells were washed twice and incubated with PE conjugated secondary antibodies specific to the IgG class of the anti-α11 antibodies being tested for 30 minutes at 4° C. Cells were washed twice and fixed in 1% PFA for 30 minutes. Cells were acquired on a FACS Verse […]. Data were analyzed by gating on single cells and determining the geometric Mean Fluorescence Intensity (gMFI) in the PE channel for each sample.
Binding to a physiologically relevant primary human cell type was also tested. Human pulmonary fibroblasts (HPF) and TGFβ treatment were used to induce a fibroblast-to-myofibroblast transition (FMT), giving rise to myofibroblasts (MF). […] Additionally, HPFs express α11 and α2β1, other collagen binding receptors, which means that HPFs can be to test cross-reactivity of antibodies of interest.

[2] = molecular target: T1, α11β1 expressed on the surface of CHO-K1 cells (Homo sapiens, UniProt Q9UKX5); experiment: FACS antibody binding to CHO-K1 cells expressing human α11; conditions: for CHO-K1 FACS: binding Yes/No
T1 construct: expressed in transfected cells; host or cells: CHO-K1
T1 sequence (Q9UKX5 23-1188): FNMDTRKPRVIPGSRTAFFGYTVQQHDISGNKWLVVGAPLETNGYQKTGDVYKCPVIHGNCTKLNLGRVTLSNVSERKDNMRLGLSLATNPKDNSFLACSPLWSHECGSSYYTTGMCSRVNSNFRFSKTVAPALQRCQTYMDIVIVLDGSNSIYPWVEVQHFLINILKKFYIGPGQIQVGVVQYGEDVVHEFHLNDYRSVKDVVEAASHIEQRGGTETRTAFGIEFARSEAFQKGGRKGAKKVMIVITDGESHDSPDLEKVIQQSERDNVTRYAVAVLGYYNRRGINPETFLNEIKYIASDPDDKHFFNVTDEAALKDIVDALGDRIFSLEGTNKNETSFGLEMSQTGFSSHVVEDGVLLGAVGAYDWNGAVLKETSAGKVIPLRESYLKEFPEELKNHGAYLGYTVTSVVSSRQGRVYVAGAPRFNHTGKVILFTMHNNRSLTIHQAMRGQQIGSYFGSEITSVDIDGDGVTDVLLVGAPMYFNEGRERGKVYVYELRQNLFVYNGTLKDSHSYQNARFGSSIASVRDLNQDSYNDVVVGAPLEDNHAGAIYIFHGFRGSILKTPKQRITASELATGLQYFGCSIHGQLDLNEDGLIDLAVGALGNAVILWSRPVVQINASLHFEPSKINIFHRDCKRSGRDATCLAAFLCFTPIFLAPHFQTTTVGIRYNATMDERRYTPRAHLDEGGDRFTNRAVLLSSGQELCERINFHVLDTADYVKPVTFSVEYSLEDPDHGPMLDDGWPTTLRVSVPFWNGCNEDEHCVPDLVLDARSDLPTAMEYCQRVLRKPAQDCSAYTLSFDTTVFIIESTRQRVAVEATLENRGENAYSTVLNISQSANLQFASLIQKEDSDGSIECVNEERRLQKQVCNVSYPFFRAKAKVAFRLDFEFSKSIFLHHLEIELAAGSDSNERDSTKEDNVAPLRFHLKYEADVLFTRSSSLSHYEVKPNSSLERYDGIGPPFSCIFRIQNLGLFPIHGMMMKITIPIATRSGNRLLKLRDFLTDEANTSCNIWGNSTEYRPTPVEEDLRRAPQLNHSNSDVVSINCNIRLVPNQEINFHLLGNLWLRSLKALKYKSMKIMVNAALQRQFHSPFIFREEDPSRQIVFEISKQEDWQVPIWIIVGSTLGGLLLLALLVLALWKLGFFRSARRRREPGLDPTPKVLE
Experimental: 200,000 cells (wild-type CHO-K1 cells or CHO-K1 cells expressing human α11) were incubated with each antibody at desired concentrations in FACS buffer for 30 min at 4° C. Then, the cells were washed with FACS buffer and incubated with secondary antibody at 1:100 dilution for 30 minutes at 4° C. Cells were then washed and fixed with 1% PFA in PBS for 20 minutes at room temperature; washed again and read on a cytometer in FACS buffer.
Since integrins are large, transmembrane receptors that exist in different conformational shapes, experiments were performed to confirm that the novel antibodies also bound cell-expressed α11β1. A CHO-K1 cell line that endogenously expressed high levels of the β1 subunit was engineered to stably express human α11 (CHO-K1 hu α11).
Binding EC50 was estimated using data from Fluorescence-activated cell sorting (FACS) performed with CHO-K1 hu α11β1 cells.

B1: 9-E16: mouse anti-α11β1 mAb; VH SEQ ID NO: 111, VL SEQ ID NO: 112 (antibody, V domains shown)
VH: EVQLQQSGPELVKPGASVKISCKASGYTFTDYYMHWVKQKPGQGLEWIGEIYPGSGNPYYNEKFKGKATLTADKSSSSAYMQLSSLTSEDSAVYFCARTSYGRVGTGFAYWGQGTLVTVSA
VL: NFVMTQTPLSLPVSLGDQASISCRSSQSLLHSNGNTYLHWYLQKPGQSPKLLIYKVSNRFSGVPDRFSGSGSGTDFTLKINRVETEDLGIYFCSQSSHVPTFGAGTKLELK
Off Target (α1β1, α2β1 and/or α10β1): No
binding to HPFs ([1]; FACS): some HPF binding
HPF FACS [1]: Low
CHO-K1 binding EC50 (in words) ([2]; FACS): not as potent
CHO-K1 FACS [2]: Yes

B2: 16E10: rabbit anti-α11β1 mAb; heavy chain SEQ ID NO: 161, light chain SEQ ID NO: 162 (antibody)
heavy: METGLRWLLLVAVLKGVQCQSLEESGGDLVKPGASLTLTCRVSGFSFSSSYYMCWVRQAPGKGLEWIACIGTTRGSTYYATWAKGRFTISKISSTTVTLQMTSLTDADTATYFCARDATGYRINTIGLYFNLWGPGTLVTVSSGQPKAPSVFPLAPCCGDTPSSTVTLGCLVKGYLPEPVTVTWNSGTLTNGVRTFPSVRQSSGLYSLSSVVSVTSSSQPVTCNVAHPATNTKVDKTVAPSTCSKPMCPPPELPGGPSVFIFPPKPKDTLMISRTPEVTCVVVDVSQDDPEVQFTWYINNEQVRTARPPLREQQFNSTIRVVSTLPIAHQDWLRGKEFKCKVHNKALPAPIEKTISKARGQPLEPKVYTMGPPREELSSRSVSLTCMINGFYPSDISVEWEKNGKAEDNYKTTPTVLDSDGSYFLYSKLSVPTSEWQRGDVFTCSVMHEALHNHYTQKSISRSPGK
light: MDTRAPTQLLGLLLLWLPGARCAFELTQTPSSVEAAVGGTPTIKCQASQTIYSYLSWYQQKPGQPPKLLIYEASKLASGVPSRFSGSGSGTDYTLTISDLECADAATYYCQSYHGTASTEYNTFGGGTEVVVRGDPVAPTVLIFPPAADQVATGTVTIVCVANKYFPDVTVTWEVDGTTQTTGIENSKTPQNSADCTYNLSSTLTLTSTQYNSHKEYTCKVTQGTTSVVQSFNRGDC
Off Target (α1β1, α2β1 and/or α10β1): No
HPF FACS [1]: No
CHO-K1 FACS [2]: Yes

B3: 24E4G6: rat anti-α11β1 mAb; VH SEQ ID NO: 147, VL SEQ ID NO: 148 (antibody, V domains shown)
VH: MELELSLIFIFSLLKDVQCEVQLVESGGSLVQPGGSLKLSCVASGYTFSNYWMDWVRQSPGKSLEWIGEINTDGRRTNYAPSIKDRFTISRDNAKSTLYLQMSNVKSDDTAIYYCTILRVYPHYFDYWGQGVMVTVSS
VL: MMSPAQFLFLLMLWIQEARGDVVMTQTPPSLSVAIGQSVSISCKSSQSLVYSDGETYLHWFLQSPGRSPKRLIYHVSNLGSGVPDRFSGTGSLTDFTLRISRVEAEDLGVYYCAQTTHFPPTFGAGTKLELK
Off Target (α1β1, α2β1 and/or α10β1): No
HPF FACS [1]: No
CHO-K1 FACS [2]: Yes

B4: 16G7: rabbit anti-α11β1 mAb; heavy chain SEQ ID NO: 159, light chain SEQ ID NO: 160 (antibody)
heavy: METGLRWLLLVAVFKGVQCQEQLVESGGDLVKPGASLTLTCTASGFSFNKNYWMCWVRQAPGKGLEWIGCIYNGDGNTYYASWVNGRFTISKTSSTTVTLQMTSLTVADTAIYFCARLLNMWGPGTLVTVSSGQPKAPSVFPLAPCCGDTPSSTVTLGCLVKGYLPEPVTVTWNSGTLTNGVRTFPSVRQSSGLYSLSSVVSVTSSSQPVTCNVAHPATNTKVDKTVAPSTCSKPMCPPPELPGGPSVFIFPPKPKDTLMISRTPEVTCVVVDVSQDDPEVQFTWYINNEQVRTARPPLREQQFNSTIRVVSTLPIAHQDWLRGKEFKCKVHNKALPAPIEKTISKARGQPLEPKVYTMGPPREELSSRSVSLTCMINGFYPSDISVEWEKNGKAEDNYKTTPTVLDSDGSYFLYSKLSVPTSEWQRGDVFTCSVMHEALHNHYTQKSISRSPGK
light: MDTRAPTQLLGLLLLWLPGARCADIVMTQTPASVEAAVGGTVTIKCQASESIGNALAWYQQKPGQPPKLLIYTAATLASGVPSRFSGSGSGTEFTLTISGVQCDDAATYYCQSYYFTSVSSYGNAFGGGTEVVVKGDPVAPTVLIFPPAADQVATGTVTIVCVANKYFPDVTVTWEVDGTTQTTGIENSKTPQNSADCTYNLSSTLTLTSTQYNSHKEYTCKVTQGTTSVVQSFNRGDC
Off Target (α1β1, α2β1 and/or α10β1): No
HPF FACS [1]: No
CHO-K1 FACS [2]: Yes

B5: 3-G5: mouse anti-α11β1 mAb; VH SEQ ID NO: 135, VL SEQ ID NO: 136 (antibody, V domains shown)
VH: QVQLQQSGAELARPGASVKLSCKASGYTFTSYGISWVKQRTGQGLEWIGEIFPRSSNTYYNEKFKGKATLTADKSSSTVYMEFRSLTSEDSAVYFCAREGGLAWFAYWGQGTLVTVSA
VL: DVVMTQTPLTLSVTIGQPASISCKSSQSLLYTNGNTYLNWLLQRPGQSPKRLIYLVSKLDSGIPDRFSGSGSGTDFTLRISRVEAEDLGVYYCLQSTHFPFTFGSGTKLEIK
Off Target (α1β1, α2β1 and/or α10β1): No
HPF FACS [1]: No
CHO-K1 FACS [2]: No

B6: 10-F23: mouse anti-α11β1 mAb; VH SEQ ID NO: 125, VL SEQ ID NO: 126 (antibody, V domains shown)
VH: QVTLKESGPGILQPSQTLSLTCSFSGFSLSTFAMGVGWIRQPSGKGLEWLAHIWWDDDKYYNPALKSRLTISKDTSKNHVFLKIANVDTADTATYYCARMPLTFYFDYWGQGTTLTVSS
VL: DVLLTQTPLSLPVSLGDQASISCRSSQSIVHSNGHTYLEWYLQKPGQSPKLLIYKVSNRFSGVPDRFSGSGSGTDFTLKISRVEAEDLGVYYCFQGSHVPFTFGGGTKLEIK
Off Target (α1β1, α2β1 and/or α10β1): No
HPF FACS [1]: No
CHO-K1 FACS [2]: Yes
